Measurements reported in PMC12215978, “CryoEM structure of the SLFN14 endoribonuclease reveals insight into RNA binding and cleavage” (Nature Communications, 2025).
Where “and” joins values, the source holds several entries; their conditions need not be identical. Equal entries are not always repeated.

Key:
[1] = target: isolated SLFN14 CTD (SLFN14^CTD) (human); test: SEC; Superdex-200 Increase 3.2/300, 5–10 μM protein, storage buffer (20 mM Tris pH 7.4, 150 mM NaCl, 5 mM MgCl2, 1 mM TCEP), calibrated with gel filtration standards
[2] = target: SLFN14^ΔCTD, SLFN14 C-terminal truncation that lacks the CTD (human); test: as above
[3] = target: the molecule itself; test: mass photometry; purified SLFN14 in solution; also exposed to high salt conditions; methods not shown

With “isolated SLFN14 CTD (SLFN14^CTD) (domain or fragment)” the stoichiometry N [1] was 2.

In the case of “SLFN14^ΔCTD, SLFN14 C-terminal truncation that lacks the CTD (domain or fragment)”, the stoichiometry N [2] is reported as 2.

B1: full-length recombinant human SLFN14 (residues 1–912), C-terminally Flag-tagged (enzyme, UniProt P0C7P3 1-912, looked up)
chain: MESLKTDTEMPYPEVIVDVGRVIFGEENRKKMTNSCLKRSENSRIIRAICALLNSGGGVIKAEIDDKTYSYQCHGLGQDLETSFQKLLPSGSQKYLDYMQQGHNLLIFVKSWSPDVFSLPLRICSLRSNLYRRDVTSAINLSASSALELLREKGFRAQRGRPRVKKLHPQQVLNRCIQEEEDMRILASEFFKKDKLMYKEKLNFTESTHVEFKRFTTKKVIPRIKEMLPHYVSAFANTQGGYVLIGVDDKSKEVVGCKWEKVNPDLLKKEIENCIEKLPTFHFCCEKPKVNFTTKILNVYQKDVLDGYVCVIQVEPFCCVVFAEAPDSWIMKDNSVTRLTAEQWVVMMLDTQSAPPSLVTDYNSCLISSASSARKSPGYPIKVHKFKEALQRHLFPVTQEEVQFKPESLCKKLFSDHKELEGLMKTLIHPCSQGIVIFSRSWAGDVGFRKEQNVLCDALLIAVNSPVVLYTILIDPNWPGGLEYARNTAHQLKQKLQTVGGYTGKVCIIPRLIHLSSTQSRPGEIPLRYPRSYRLADEEEMEDLLQALVVVSLSSRSLLSDQMGCEFFNLLIMEQSQLLSESLQKTRELFIYCFPGVRKTALAIKIMEKIKDLFHCKPKEILYVCESDSLKDFVTQQTTCQAVTRKTFMQGEFLKIKHIVMDETENFCSKYGNWYMKAKNITHPKAKGTGSENLHHGILWLFLDPFQIHHADVNGLPPPSAQFPRKTITSGIHCALEIAKVMKEEMKRIKENPPSNMSPDTLALFSETAYEEATCAQALPGVCETKTNLTTEQIANYVARKCHSLFQCGYLPKDIAILCRRGEDRGRYRLALLKAMELIETHRPSEVVFSPATGVWGSHIVLDSIQQFSGLERTVVFGLSPECDQSEEFHKLCFASRAIKHLYLLYEKRAAY
notes: human SLFN14, full length, residues 1-912; The sample keeps co-purified cellular nucleic acid, and the structure has RNA in the cleft; also called SLFN14 wild-type (WT); Schlafen 14; not shown: Flag, C-terminal, kept
B1 was tested, and the “stoichiometry N” value [3] was 2 and 4.
